Measurements: the supplement of paper PMC9732359
± gives the uncertainty stated by the source.

Assay: protein stability index of a GFP-peptide fusion (yeast GPS) (PSI 1-4); higher = more stable; sorted into four equal gates, so the index is relative within each strain
In short: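 Sequencing reads from sorted gates were used to score each peptide. The library consisted of tiled 17-residue yeast protein peptides fused downstream of GFP on a Cherry-expressing plasmid, pooled and carried in yeast. Mid-log cultures in leucine-free medium were split into four equal gates by GFP/Cherry ratio, and each gate's plasmids were PCR-amplified and Illumina-sequenced. The protein stability index adds up, over all gates, the read frequency multiplied by the gate number.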

Sequence	protein stability index (doa10∆)	protein stability index (pdr5∆)	protein stability index (san1∆)	protein stability index (ubr1∆)
KSHVLLATPVQFELLSR [BRR2]	2.31 ± 0.057	1.58 ± 0.052	2.02 ± 0.066	2.08 ± 0.049
GRLASTIAKQVLNGQKI [RPL16B]	3.42 ± 0.28	2.69 ± 0.11		2.58 ± 0.13
TKIPQIGDKFASRHGQK [RPB2]	1.57 ± 0.073	2.3 ± 0.07	2.77 ± 0.084	1.83 ± 0.039
ESSHEQEEFVQFLQLDN [ECM29]	3.5 ± 0.21	3.31 ± 0.13	3.22 ± 0.16	3.29 ± 0.14
GNKLVELMRIISRNGDT [SMC1]				3.28 ± 0.25
KAPEAEQVLSAAATFPI [RPL13A]	2.97 ± 0.071	2.76 ± 0.075	2.96 ± 0.078	2.81 ± 0.04
EEASQQQQLQQNSKEKN [MED2]	2.85 ± 0.092	2.85 ± 0.086	2.92 ± 0.071	2.83 ± 0.065
QENGTIFRGSLIGCIPY [YDL088C/ASM4]	2.59 ± 0.052	2.57 ± 0.052	2.48 ± 0.061	2.5 ± 0.038
VLSDDAKKLSSFDFGNE [ARP9]	2.93 ± 0.055	3.06 ± 0.09	2.86 ± 0.062	3.06 ± 0.056
VVGVVGYVETPRGLRSL [RPL3]	2.15 ± 0.072	2.68 ± 0.049	3.15 ± 0.056	2.98 ± 0.095
TQPKATSTGTTIVGVKF [PUP1]	3.48 ± 0.12	3.52 ± 0.1	3.28 ± 0.1	3.03 ± 0.091
FNTNFDDEFGDLDAVFF [SNF6]	3 ± 0.076	2.96 ± 0.059	2.77 ± 0.054	3.01 ± 0.035
VKWYHFDHNDKKLSINS [PRE7]	2.51 ± 0.086	2.38 ± 0.063	2.15 ± 0.082	2.48 ± 0.1
YGNPTSKESWRYDWYQP [RTT102]	2.05 ± 0.1	2.27 ± 0.082	2 ± 0.071	2.03 ± 0.035
TFGINLIYVNPFMLQWG [FAS1]	2.22 ± 0.067	2.35 ± 0.08	2.46 ± 0.074	2.4 ± 0.051
SAGFETDLRLSTNGLGM [SNU114]	3.43 ± 0.1	3.46 ± 0.12	2.98 ± 0.22	3.13 ± 0.22
SGSAGANPAGASQPEPT [YJL041W/NSP1]	2.9 ± 0.18	3.2 ± 0.13	2.93 ± 0.1	3.15 ± 0.1
KLTVCFDDILKVGAEMM [MED2]	1.97 ± 0.07	1.95 ± 0.06	1.89 ± 0.11	2 ± 0.041
NACAKYGRDDMENIKKS [ISW2]	2.91 ± 0.11	2.93 ± 0.12	3.08 ± 0.078	3.06 ± 0.086
AEDVALNEQVKKFFLNN [NAS6]	2.12 ± 0.058	2.18 ± 0.069	2.11 ± 0.067	2.04 ± 0.068
AEKKVVRLTSRQRGRIA [RPL17A]	2.88 ± 0.18	1.28 ± 0.074	1.45 ± 0.19	1.14 ± 0.093
VSITPGKIEKIAQSKKK [SRP21]	1.62 ± 0.081	1.8 ± 0.086	1.36 ± 0.13	1.49 ± 0.06
RALFETKLNLHCVIEDD [RRI1]	2.36 ± 0.11	2.8 ± 0.071	2.8 ± 0.057	2.29 ± 0.1
LQAQDRAHRIGQKNEVR [SNF2]	3 ± 0.065	3.17 ± 0.077	2.86 ± 0.073	3.18 ± 0.063
NGNDESSEYETINISLS [NUT1]	3.16 ± 0.12	3.32 ± 0.2	3.06 ± 0.12	3.58 ± 0.25
LVQQIQKETQKVTKIWS [PRP28]	2.39 ± 0.06	2.58 ± 0.064	2.52 ± 0.058	2.26 ± 0.047
LYYDEDINVESLTQSVC [PUP2]	2.36 ± 0.061	2.25 ± 0.052	2.46 ± 0.064	2.21 ± 0.031

Sequence	protein stability index (doa10∆)	protein stability index (pdr5∆)	protein stability index (san1∆)	protein stability index (ubr1∆)
ARDLLTRDEKDPKRLFE [RPS9A]	3.37 ± 0.19	3.6 ± 0.11	3.14 ± 0.14	3.62 ± 0.083
IYKSIFNVVDVGVDQLS [YJL039C/NUP192]	3.11 ± 0.055	2.92 ± 0.047	3.05 ± 0.041	3.05 ± 0.042
VNRSVVVSAVGEARNDI [YAR002W/NUP60]	2.62 ± 0.044	2.57 ± 0.051	2.83 ± 0.041	2.2 ± 0.037
VSALDKCIKYSEKLITK [ECM29]	3.18 ± 0.14	2.15 ± 0.1	1.94 ± 0.12	1.92 ± 0.093
KLYKTPIPIPAFADRLG [PRE10]	1.5 ± 0.11	1.29 ± 0.076	1.04 ± 0.18	1.46 ± 0.2
TKFQTTDRESYPRLQDP [YCS4]	3 ± 0.072	3.15 ± 0.055	3.13 ± 0.079	3.05 ± 0.074
TEHVRQNAKLLANLIRD [RRP6]	1.54 ± 0.046	1.93 ± 0.08	2.39 ± 0.14	1.62 ± 0.086
FKNTRETAQAINGWELT [RPL17A]	1.35 ± 0.031	1.58 ± 0.04	2.06 ± 0.062	1.4 ± 0.033
QREFKEIMEERNVEQKL [NNF1]			2.79 ± 0.24	
TTTNTDQNNATMGEETA [SNF12]	3.3 ± 0.076	3.37 ± 0.11	3.4 ± 0.076	3.21 ± 0.1
LEAARSEKQNDEEAAGA [PRP8]	2.37 ± 0.097	2.04 ± 0.078	2.61 ± 0.2	2.32 ± 0.078
FHTSFSAVVGPNGSGKS [SMC4]	3.09 ± 0.089	3.18 ± 0.084	3.35 ± 0.085	3.37 ± 0.12
TQRIMTNVIAFAFWNLL [YLR018C/POM34]	1.81 ± 0.069	2.13 ± 0.058	1.74 ± 0.16	1.58 ± 0.027
QLDGFSSDDRVKVLAAT [RPT5]	2.88 ± 0.16	2.83 ± 0.096		1.58 ± 0.12
DVPGRELKYELIAEESE [RPB2]	3.07 ± 0.19	3.01 ± 0.12		
ISNNLALVFAALEHLKN [SRP68]	1.95 ± 0.051	1.8 ± 0.041	2.12 ± 0.052	2.09 ± 0.041
LKKLKAMNDACYEKVLE [BRR2]	3.18 ± 0.074	3.26 ± 0.061	3.12 ± 0.039	3.05 ± 0.058
YSDIGGLESQIQEIKES [RPT2]	1.8 ± 0.095	1.97 ± 0.08	1.88 ± 0.096	2.52 ± 0.091
ICYNKKTEYVLNDLNHL [REC8]	1.8 ± 0.19	1.75 ± 0.091	1.68 ± 0.21	1.88 ± 0.19
RNAEFKVSKNSTSFKNP [YMR153W/NUP53]	2.79 ± 0.093	2.13 ± 0.062	2.14 ± 0.1	2.46 ± 0.076
REDEFGSIPSLTTQFVT [YDL088C/ASM4]	3 ± 0.066	2.92 ± 0.058	3.06 ± 0.053	3.2 ± 0.067
VLKSSVYEYVIASTLGP [RPC82]	1.43 ± 0.085	1.53 ± 0.07	1.23 ± 0.11	1.43 ± 0.055
KGRYAPETGDHVVGRIA [RRP4]	3.03 ± 0.08	3.21 ± 0.08	2.6 ± 0.11	2.67 ± 0.11
NGFHGRLGDLGVIDDSF [SMC4]	3.51 ± 0.17	3.35 ± 0.11	3.11 ± 0.12	3.46 ± 0.057
KKSLEEDDEFEDFPIDT [SEM1]	3 ± 0.13	3.02 ± 0.13	2.66 ± 0.14	3.02 ± 0.088
TDENTPSADGADKKDDS [ITC1]	3.04 ± 0.11	3.11 ± 0.062	3.36 ± 0.064	2.98 ± 0.061
